# According to the RNAGym collection of RNA variant scans (doi:10.1073/pnas.2313332121):
# Fewer inactive variants are shown than the library holds.
# B1: TPR 5TU (parent)
# chain: GGAUCUUCUCGAUCUAACAAAAAAGACAAAUCUGCCACAAAGCUUGAGAGCAUCUUCGGAUGCAGAGGCGGCAGCCUUCGGUGGCGCGAUAGCGCCAACGUUCUCAACUAUGACACGCAAAACGCGUGCUCCGUUGAAUGGAGUUUAUCAUG
# Variants of: B1
# Assay: polymerase ribozyme fitness, log enrichment relative to wild type (log ratio); higher = more active; in vitro selection for triplet polymerase activity
# Outline: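 Mutant libraries for each subunit of a heterodimeric triplet polymerase ribozyme were made by PCR and then transcribed. Each library underwent one round of in vitro selection in triplicate: annealing with a biotinylated primer, the partner subunit and triplets, frozen incubation at −7 °C, gel excision of extended constructs, streptavidin-bead capture and RT-PCR. Input and output libraries were Illumina-sequenced, and only genotypes with ≥10 input reads and ≥1 read per output were kept. Fitness is the logarithm, base 2, of genotype enrichment over wild-type enrichment, computed from inverse-variance-weighted replicate averages.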
row,Variant,polymerase ribozyme fitness (log ratio)
1,U45A A73G G83C C85U,≤ -4.2
2,C43U A138C,≤ -4.2
3,C43U U55G A60U U109A U145C U146C,≤ -4.2
4,U45A A52C G71A C99A G133U U145G,≤ -4.2
5,U45A A115C,≤ -4.2
6,U44A C76U G86U A121U,-3.86
7,U44C C96U C103G A115C,-4.19
8,G42U G70C G83C G141C,≤ -4.2
9,C43U U61A G86U A142G A147U,≤ -4.2
10,U45A U82G C129A U139A U145G,≤ -4.2
11,C43A U44A C118U,-4.17
12,G42C U44A G70C C96U G126U G141A,≤ -4.2
13,U45A C75U U90A C93U A119U G141C,≤ -4.2
14,C43U U56A C72A C85A,≤ -4.2
15,U44A G83U,-3.94
16,U45A C51U C54U G92U,-3.95
17,G42C U45A G48U A49C C75U C118G U144C,≤ -4.2
18,C43U U61G A64C U77G C85U A110U C116G,-4.02
19,U45A A142G,-2.94
20,C43U G46C G83U,≤ -4.2
21,C43U C85A C87U G94C,≤ -4.2
22,U44A C51U C76U C95A,≤ -4.2
23,G42U U44A C85A C96G A115C C129A,≤ -4.2
24,U44A C75G C96U,-4.08

row,Variant,polymerase ribozyme fitness (log ratio)
1,C43G G84A C95A A106U C118G G143U,≤ -4.2
2,C43A U53G A64U C95U A110U A150C,≤ -4.2
3,U44A A49C,-4.06
4,U44A A49G,≤ -4.2
5,C43U G50C C75G C79G G84A,≤ -4.2
6,U44A C57A U82C C95A,≤ -4.2
7,U44A C76A U82G G100A C103G A137G,≤ -4.2
8,U45C U55A,-1.08
9,U45C A119C,-0.959
10,U44G U134C,-4.1
11,U45A G88C A113C U134A,≤ -4.2
12,C43A U45G U90A U102G G140A A147C,≤ -4.2
13,G42U C76G G80A C95G,≤ -4.2
14,U44A G58U G70C C76A A91G A115C,≤ -4.2
15,U45A A47C U61A G92A C114A C123G U146G,≤ -4.2
16,G42U G59U G84A C85U C103G A119G,≤ -4.2
17,U45A G67C G84U C108U A120U,≤ -4.2
18,U44G C51U G74A G94C A120U C149G,≤ -4.2
19,U45A G58C,-2.28
20,U45A G58A,-1.48
21,G42C G80C C93A U104A C108G U145A U146C,≤ -4.2
22,U45A A73U,≤ -4.2
23,C43U G48A C57G C85U,≤ -4.2
24,G42C U44A A52G G70U G83C,≤ -4.2

row,Variant,polymerase ribozyme fitness (log ratio)
1,U44A U82A,-4.18
2,U45A G46C U56A G84U G88U U90G C99A,≤ -4.2
3,G42C G86U,≤ -4.2
4,G42C G86C,≤ -4.2
5,U45A C99A A106U A121U C149G G152A,-4.01
6,G42C C99U,≤ -4.2
7,G42C U45G U146C,≤ -4.2
8,U45A C54A C95A A113G C129A,≤ -4.2
9,U45A U56G A73G C96G C99G A107U G140A,≤ -4.2
10,G42C U55A A66G U144A,≤ -4.2
11,U44A U82G G84C C87G A113C C118U,≤ -4.2
12,C43U C103G,≤ -4.2
13,G42C U44G A106G,≤ -4.2
14,U45A U55A U61A C63A U77A C131A A150G U151A,≤ -4.2
15,U45A A47U G65C A66U G86C C87G C131G,≤ -4.2
16,U45A G84A A115C,-3.88
17,U44A C85A G92A A107U G128U,≤ -4.2
18,U44A G50U G59A C85A C99G G126U,≤ -4.2
19,G42C U44A C54G A91U C99U G143C U145C,≤ -4.2
20,C43A G50A C72U G84U U90A C103A G141U,≤ -4.2
21,C43U C54U U56G U78C C85G C93G G133A G136U G140U,≤ -4.2
22,U44A G80A A138U A150G,≤ -4.2
23,C43G G86U U139C,-4.11
24,C43A G48U A60G G83C C87U G126U A138C,≤ -4.2

row,Variant,polymerase ribozyme fitness (log ratio)
1,C43U A73G,≤ -4.2
2,U44G G143C,≤ -4.2
3,C43U C79A,-4.15
4,U45A G133A U134C,≤ -4.2
5,U45A G50U G83U C87U C103U C105A,≤ -4.2
6,U44A A47U C72G G86C A91C,≤ -4.2
7,C43U A66G C105A,≤ -4.2
8,U44G C54U C85G G117U A122U,≤ -4.2
9,C43A A49U G74A G86C C93A C105U U144A,≤ -4.2
10,C43U C96G,≤ -4.2
11,G42C G94C U111C,≤ -4.2
12,C43A C57G U78G C96A A113G,≤ -4.2
13,U45C C93A,-3.52
14,U44C G58A A64G C93G A119G,≤ -4.2
15,G42C U44A A49U A60C C79U C96U C125A A142G,≤ -4.2
16,C43G G83C,≤ -4.2
17,U44A G46C C75G U102A A120U U130G,-3.99
18,C43U C125G U151G,≤ -4.2
19,G42U G65A C95U U139G,≤ -4.2
20,U44G G67U A91U A115U A120C,≤ -4.2
21,U45A A49U,≤ -4.2
22,U44A U53A G86U C132U U135G,≤ -4.2
23,U44A G117U,≤ -4.2
24,G42C U45A A52C U77G C85A C116G,≤ -4.2

row,Variant,polymerase ribozyme fitness (log ratio)
1,G42C C95A,≤ -4.2
2,U45A G140U,-4.19
3,U45A G46A U55C A66G U77G U82A C103G U135C U145C,≤ -4.2
4,U44G G59A A60C G83A C95G C103G,≤ -4.2
5,U44G G48U G86A G100C C105A G126A U134C,≤ -4.2
6,U44G G46C A60C U61A C95U,≤ -4.2
7,G42C U44G G88A A97C,≤ -4.2
8,U44G A52C U77C G83A C99A C118A U145G,≤ -4.2
9,U44A U144C,-3.62
10,G42U U55G G59A G88U C96G A98G C118G,≤ -4.2
11,U45A U55G U56G C87U G92C,-3.98
12,C43A A52G C69U A91U C96U A106U,≤ -4.2
13,U45A C69A C95U C99G G112U C114U A147U,≤ -4.2
14,C43U U56A C87A G152U,≤ -4.2
15,C43G G50U U61C G86A C95U C125U U146G,≤ -4.2
16,G42C U56A G84U A121C,≤ -4.2
17,G42C C96U C99U,≤ -4.2
18,U44G U45G C54U C87A,≤ -4.2
19,U45A C72A G86U C99U,≤ -4.2
20,C43A A73G G83A A89U U90C G136C G141C,≤ -4.2
21,U45A A121G C131G G140U,≤ -4.2
22,G42U U45A C95U C149A,≤ -4.2
23,G42U U44A C54A G88U,≤ -4.2
24,G42C G68U C85U G128A A150C,≤ -4.2

row,Variant,polymerase ribozyme fitness (log ratio)
1,G42C U56G C114U U127A A138C,≤ -4.2
2,U45A A73U G83A G128U U151A,≤ -4.2
3,U44A C75U C76G U77G G92U A115U G140A G152C,≤ -4.2
4,C43U G58A U90C C132A G143U,≤ -4.2
5,U44C G94C U146A,≤ -4.2
6,U45A U82A A106G A122G U148G,≤ -4.2
7,U44C G59U G92A U135A,≤ -4.2
8,C43G G94A,-3.81
9,C43A C63U U90A,≤ -4.2
10,G42C U55A C85U,≤ -4.2
11,U44G G58C C87G,≤ -4.2
12,G42U U56A G58A C76U C95G A98G,≤ -4.2
13,C43U A52C C57U G83A A89C,≤ -4.2
14,U44A G88C,≤ -4.2
15,G42U U56A C75G A91U G126A U144A,≤ -4.2
16,C43A G58C G81C C95U C96A A122U G126C G143C,≤ -4.2
17,G42U U56A A120U A142C,≤ -4.2
18,U44G G59C U78C G117U G143C,≤ -4.2
19,C43U G50U U55A C76U G136A G152U,≤ -4.2
20,U44G U45G C72G U144C A147G,≤ -4.2
21,C43G C69A,≤ -4.2
22,G42U U53C C95G,≤ -4.2
23,U45A C85A C93U C96U C118A C132A,≤ -4.2
24,G42U U45G U53C G88U A137C,≤ -4.2

row,Variant,polymerase ribozyme fitness (log ratio)
1,C43A A66G U77A A97G U146A,≤ -4.2
2,C43G C105A C123G U148A,≤ -4.2
3,U44G U61C,≤ -4.2
4,U44A G48C C87A A115U C125A,≤ -4.2
5,C43A C96A U101G A150U,-4.16
6,C43A G88A,≤ -4.2
7,U45A G84A,-3.44
8,U45A A64C C93A,≤ -4.2
9,U45A G92C,-3.75
10,U45A G92U,-2.75
11,C43U C75A C79U G86U C87U G117U A150C,≤ -4.2
12,C43A G58C C76A U102C G141A,≤ -4.2
13,C43G U56G C96U U139G U148G,≤ -4.2
14,C43G C87U U109G,≤ -4.2
15,G42C U44A A49C G126C C131A A142G A147U,≤ -4.2
16,G42C C79G G124C,≤ -4.2
17,U45A G88C,≤ -4.2
18,C43U G58C C95A U102C C103G C105G A110U,≤ -4.2
19,U45A A52G U82G A115G G136U G141A U151G,≤ -4.2
20,U44A A91G U135C U144C,≤ -4.2
21,U44G G65A A66C A91G,≤ -4.2
22,C43A U44G A64C C118G C131G A137G G152U,≤ -4.2
23,C43U G67U,≤ -4.2
